{
  "source": "patent US9586990B2",
  "about": "“Enzymes for transforming ergopeptines and method therefor” (Erber Aktiengesellschaft, priority 2012, dated 2017)",
  "molecules": {"B1": {"name": "enzyme with the sequence ID No. 1: α/β-hydrolase with catalytic triad S94-D234-H270, coded by gene sequence ID No. 2, cleaving ergopeptines in the cyclol ring (protein, listed as Rhodococcus erythropolis)", "chain": "MPLVVLSDGTRIHVETSGNGVPALVPCVGSSVPFERTFGEELKTDIQYNFVEVRGTSRSDGEPSEVASLDRISDDLEEVRQLLGLDKVIALGQSRNGMMAAHYAQKYPNSVLHLVTIGTPASLSMIKNEEYWNAFADDERKRLRAENDAAMEREGLLDLDNLNTAEKIVRLFDLEGAVYFYDPTTLMNDWWDASLLSRTFEVVMASNMGWADFDLVQTLQNSDVPAFVTFGKYDFMVSPLPKPGNPVDGKAGLFEDIPGVRVEVFEKSGHFPYWEQEQEFARRYRDWVATLPESAVRAAEAMTPNGIRQ"}},
  "key": {"[1]": {"experiment": "temperature stability of the enzyme", "type": "biochemical", "protocol": "In order to determine the temperature stability, the enzyme was incubated for 1 h at varying temperatures ranging from 10° C. to 60° C. After this, the enzyme solutions were incubated at concentrations of 0.1 μg/ml in Teorell-Stenhagen universal buffer (pH 7.0) with 0.1 mg/ml BSA and 5 mg/kg ergotamine at 25° C."}, "[2]": {"experiment": "degradation assay in the in-vitro rumen model", "settings": "1 μg/ml enzyme, 5 mg/kg ergotamine, rumen juice diluted 1:1, 39° C., HPLC/ESI-MS/MS"}, "[3]": {"experiment": "pH stability of the enzyme", "type": "biochemical", "settings": "1 h at 25° C. at pH 2 to pH 12; then assay at pH 7.0, 25° C.", "protocol": "In order to determine the pH stability, the enzyme was incubated for 1 h at 25° C. at varying pH values ranging from pH 2 to pH 12. After this, the enzyme solutions in concentrations of 0.1 μg/ml were incubated with 0.1 mg/ml BSA and 5 mg/kg ergotamine in Teorell-Stenhagen universal buffer (pH 7.0) at 25° C."}, "[4]": {"experiment": "temperature range of the activity", "type": "biochemical", "settings": "0.1 μg/ml enzyme, 5 mg/kg ergotamine, Teorell-Stenhagen universal buffer pH 9.0"}, "[5]": {"experiment": "assay for reacting the six ergopeptines and their isomeric forms", "type": "biochemical", "settings": "1.58 μg/ml enzyme, concentrations equimolar to 10 mg/kg ergotamine; pH 7.0, 25° C.; FIG. 2", "protocol": "(§1) The gene with the sequence ID No. 2, which codes for an α/β-hydrolase comprising a catalytic triad of S94-D234-H270, was cloned into the expression vector pET28a(+) by applying standard methods, transformed and expressed in E. coli. Following the expression in E. coli BL21(DE3), the his-tagged enzyme was purified by affinity chromatography. The enzyme concentration was determined using a Pierce BSA Protein Assay Kit, and the enzyme was used in activity assays. The assays were carried out in 50 mM sodium phosphate buffer (pH 7.0) at 25° C.\nA further assay for reacting the six ergopeptines, namely ergotamine, ergovaline, ergocomine, ergocristine, ergocryptine or ergosine, and their respective isomeric forms, namely ergotaminine, ergovalinine, ergocominine, ergocristinine, ergocryptinine and ergosinine, used 1.58 μg/ml of the enzyme with sequence ID No. 1 and 10 mg/kg ergotamine, or the equimolar (summation) concentrations of the remaining ergopeptines or their epimers.\nThe samples were analyzed using HPLC-FLD or HPLC-MS/MS, each by analytically determining the respective concentration of the sum of the respective epimers. […] During the continued reaction course, the conversion of metabolite 1 to ergine was detected."}, "[6]": {"experiment": "activity (detoxification) assay of the purified his-tagged enzyme with ergotamine", "type": "biochemical", "settings": "FIG. 1; 50 mM sodium phosphate buffer pH 7.0, 25° C.; enzyme 0.079 μg/ml, ergotamine 5 mg/kg", "protocol": "as §1\nIn the context of the detoxification assays, enzyme concentrations of 0.079 μg/ml and ergotamine concentrations of 5 mg/kg were used.\nThe samples were analyzed using HPLC-FLD or HPLC-MS/MS, each by analytically determining the respective concentration of the sum of the respective epimers. Simultaneously with the determination of the ergopeptine concentration during the enzymatic reaction, the formation of the ergo hydroxy acid (metabolite 1) and of the ergoproline cyclodipeptide (metabolite 2) was observed. During the continued reaction course, the conversion of metabolite 1 to ergine was detected."}},
  "data": [
    {"molecule": "B1", "values": [
      {"measurement": "temperature up to which the enzyme is stable", "setting": "[1]; 1 h preincubation at 10° C. to 60° C., then 0.1 μg/ml enzyme, pH 7.0, 0.1 mg/ml BSA, 5 mg/kg ergotamine, 25° C.", "value": "≤ 30", "unit": "°C"},
      {"measurement": "activity after incubation at 40° C.", "setting": "[1]; 1 h preincubation at 40° C., then assay at pH 7.0, 25° C.", "value": "still displaying some activity"},
      {"measurement": "conversion of ergotamine in the rumen model", "setting": "[2]", "value": "completely converted into ergine and lysergic acid"},
      {"measurement": "activity outside the pH 6 to pH 9 range after preincubation", "setting": "[3]", "value": "strongly decreasing activity"},
      {"measurement": "temperature optimum of activity, based on the starting speed", "setting": "[4]", "value": 35, "unit": "°C"},
      {"measurement": "reaction courses of all other ergopeptines and their isomeric forms relative to ergotamine", "setting": "[5]", "value": "comparable"},
      {"measurement": "time to almost complete degradation of ergotamine to ergine", "setting": "[6]", "value": "≤ 4", "unit": "h"}
    ]}
  ]
}
